From patent publication US20150017651A1 (University of Texas, published 2015) come the findings set out here.

For the test, the target named is T1, flag-tagged wild-type Gli1 (human, UniProt P08151 1-1106).
T1 construct: Transiently expressed in BE3 cells without TNFα stimulation; also called flag-Gli1WT; flag-Gli1; not shown: flag tag from vector p3flag-CMV10
T1 sequence (looked up): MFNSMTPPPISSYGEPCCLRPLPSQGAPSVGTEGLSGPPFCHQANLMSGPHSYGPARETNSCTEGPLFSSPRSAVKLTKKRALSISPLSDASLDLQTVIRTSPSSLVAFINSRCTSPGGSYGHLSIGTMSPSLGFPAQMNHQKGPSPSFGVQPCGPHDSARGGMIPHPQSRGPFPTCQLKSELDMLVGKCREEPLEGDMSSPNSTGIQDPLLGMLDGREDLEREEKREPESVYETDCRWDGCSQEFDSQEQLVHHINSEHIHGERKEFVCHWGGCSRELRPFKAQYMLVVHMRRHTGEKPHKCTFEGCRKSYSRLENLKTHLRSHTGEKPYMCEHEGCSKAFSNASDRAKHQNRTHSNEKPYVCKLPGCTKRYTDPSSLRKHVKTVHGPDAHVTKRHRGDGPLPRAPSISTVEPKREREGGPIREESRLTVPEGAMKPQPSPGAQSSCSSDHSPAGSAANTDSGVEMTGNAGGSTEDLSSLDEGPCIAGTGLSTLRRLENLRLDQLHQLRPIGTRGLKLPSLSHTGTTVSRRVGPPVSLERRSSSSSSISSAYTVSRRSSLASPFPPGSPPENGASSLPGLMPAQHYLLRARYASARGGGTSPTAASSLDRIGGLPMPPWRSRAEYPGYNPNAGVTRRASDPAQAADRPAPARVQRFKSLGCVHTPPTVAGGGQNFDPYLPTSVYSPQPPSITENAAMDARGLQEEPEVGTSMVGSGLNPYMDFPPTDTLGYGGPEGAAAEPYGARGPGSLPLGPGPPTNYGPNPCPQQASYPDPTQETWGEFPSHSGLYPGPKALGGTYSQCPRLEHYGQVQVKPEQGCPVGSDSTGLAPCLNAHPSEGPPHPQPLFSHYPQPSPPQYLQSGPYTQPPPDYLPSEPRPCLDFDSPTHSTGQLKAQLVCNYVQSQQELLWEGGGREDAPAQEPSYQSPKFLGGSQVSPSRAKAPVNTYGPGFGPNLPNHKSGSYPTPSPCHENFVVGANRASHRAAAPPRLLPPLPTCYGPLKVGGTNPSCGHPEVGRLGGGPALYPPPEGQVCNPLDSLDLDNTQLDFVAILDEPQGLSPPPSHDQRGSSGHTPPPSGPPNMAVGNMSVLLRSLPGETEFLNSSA
Kind of test: IP-Western, flag-tagged Gli1WT transfected into BE3 cells.

B1: SuFu (other, human, UniProt Q9UMX1 1-484, looked up)
chain: MAELRPSGAPGPTAPPAPGPTAPPAFASLFPPGLHAIYGECRRLYPDQPNPLQVTAIVKYWLGGPDPLDYVSMYRNVGSPSANIPEHWHYISFGLSDLYGDNRVHEFTGTDGPSGFGFELTFRLKRETGESAPPTWPAELMQGLARYVFQSENTFCSGDHVSWHSPLDNSESRIQHMLLTEDPQMQPVQTPFGVVTFLQIVGVCTEELHSAQQWNGQGILELLRTVPIAGGPWLITDMRRGETIFEIDPHLQERVDKGIETDGSNLSGVSAKCAWDDLSRPPEDDEDSRSICIGTQPRRLSGKDTEQIRETLRRGLEINSKPVLPPINPQRQNGLAHDRAPSRKDSLESDSSTAIIPHELIRTRQLESVHLKFNQESGALIPLCLRGRLLHGRHFTYKSITGDMAITFVSTGVEGAFATEEHPYAAHGPWLQILLTEEFVEKMLEDLEDLTSPEEFKLPKEYSWPEKKLKVSILPDVVFDSPLH
notes: also called suppressor of fused
For B1, the binding result is given as “binds”.
